Assay results taken from paper PMC3534766.

Molecular target: FUS-RRM wild type (Homo sapiens, UniProt P35637 278-385)
Experiment: NMR titration

Chain of FUS-RRM wild type (P35637 278-385): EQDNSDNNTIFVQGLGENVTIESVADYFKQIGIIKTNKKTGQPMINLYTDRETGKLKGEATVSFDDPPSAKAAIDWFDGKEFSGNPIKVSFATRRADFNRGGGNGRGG

TTAGGGTTAGGGTTAGGGTTAGGG (structured_DNA) [24-mer d(TTAGGG)4 (NMR)]
binding result: binds
